Results as given in publication PMC6796840, “An H3K27me3 demethylase-HSFA2 regulatory loop orchestrates transgenerational thermomemory in Arabidopsis”.

B1: SGIP1-HSE-P4 (dsDNA)
DNA 1: AGCCAGTGGCGATAAGCTCTGAAAAGTTTCTGTCGAAGTCTTATCGCCACTGGCT
DNA 2: AGCCAGTGGCGATAAGACTTCGACAGAAACTTTTCAGAGCTTATCGCCACTGGCT
B2: BRM-HSE-P1 (dsDNA)
DNA 1: AGCCAGTGGCGATAAGAACAAATTTATTCAGGAATCAGAAACACTTATCGCCACTGGCT
DNA 2: AGCCAGTGGCGATAAGTGTTTCTGATTCCTGAATAAATTTGTTCTTATCGCCACTGGCT
B3: BRM-HSE-P2 (dsDNA)
DNA 1: AGCCAGTGGCGATAAGTTTTACTTGTTTCGGGAAAAAAAACTACTTATCGCCACTGGCT
DNA 2: AGCCAGTGGCGATAAGTAGTTTTTTTTCCCGAAACAAGTAAAACTTATCGCCACTGGCT
B4: BRM-HSE-P3 (dsDNA)
DNA 1: AGCCAGTGGCGATAAGATTTTTATTTTTCGAGAAGCCATCTCACTTATCGCCACTGGCT
DNA 2: AGCCAGTGGCGATAAGTGAGATGGCTTCTCGAAAAATAAAAATCTTATCGCCACTGGCT
B5: REF6-HSE-P1 (dsDNA)
DNA 1: AGCCAGTGGCGATAAGCTACTAATTTCATGAACTACCAAAGACTCTTATCGCCACTGGCT
DNA 2: AGCCAGTGGCGATAAGAGTCTTTGGTAGTTCATGAAATTAGTAGCTTATCGCCACTGGCT

What follows are binders tested against His-HSFA2 (Arabidopsis thaliana, UniProt O80982 1-345) (assay: EMSA; HSFA2: 10 mM Tris-HCl pH 7.6, 25 mM KCl, 2.5 mM MgCl2, 1 mM EDTA, 1 mM DTT, 10% glycerol, 25 C 30 min; REF6C: 25 mM Tris-HCl pH 8.0, 100 mM NaCl, 2.5 mM MgCl2). Settings: protein: recombinant; tags: His (pET32a in Methods); chain copies: 3; label: Cy5 end.
His-HSFA2, sequence (O80982 whole entry): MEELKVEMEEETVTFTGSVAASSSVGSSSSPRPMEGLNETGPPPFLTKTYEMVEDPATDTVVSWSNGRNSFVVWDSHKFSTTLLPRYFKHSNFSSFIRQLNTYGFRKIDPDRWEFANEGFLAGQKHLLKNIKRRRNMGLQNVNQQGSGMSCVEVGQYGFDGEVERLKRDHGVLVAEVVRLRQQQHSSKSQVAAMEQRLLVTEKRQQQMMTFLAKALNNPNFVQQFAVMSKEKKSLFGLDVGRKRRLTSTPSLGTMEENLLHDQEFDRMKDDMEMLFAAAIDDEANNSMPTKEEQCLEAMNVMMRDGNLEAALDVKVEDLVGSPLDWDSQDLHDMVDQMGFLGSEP

Binding result, binds:
B1
B2
B3
B4
B5
